Experiments:
[1] = target: T1, activated thrombin-activatable fibrinolysis inhibitor (human TAFIa) (human, UniProt Q96IY4 115-423)
T1 construct: Purified from human serum in the presence of 5 mM epsilon-aminocaproic acid; also called carboxypeptidase U
T1 sequence (looked up): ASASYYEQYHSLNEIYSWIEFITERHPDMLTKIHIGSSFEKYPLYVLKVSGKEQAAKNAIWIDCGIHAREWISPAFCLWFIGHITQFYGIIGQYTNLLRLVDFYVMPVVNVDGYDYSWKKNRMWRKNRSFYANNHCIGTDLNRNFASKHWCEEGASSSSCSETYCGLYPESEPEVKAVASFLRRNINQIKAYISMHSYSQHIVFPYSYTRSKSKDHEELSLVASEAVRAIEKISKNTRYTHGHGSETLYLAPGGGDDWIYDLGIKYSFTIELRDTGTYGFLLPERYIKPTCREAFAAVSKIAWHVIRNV

human carboxypeptidase B = target: T2, human carboxypeptidase B (human, UniProt P15086 111-417)
T2 construct: also called CPB
T2 sequence (looked up): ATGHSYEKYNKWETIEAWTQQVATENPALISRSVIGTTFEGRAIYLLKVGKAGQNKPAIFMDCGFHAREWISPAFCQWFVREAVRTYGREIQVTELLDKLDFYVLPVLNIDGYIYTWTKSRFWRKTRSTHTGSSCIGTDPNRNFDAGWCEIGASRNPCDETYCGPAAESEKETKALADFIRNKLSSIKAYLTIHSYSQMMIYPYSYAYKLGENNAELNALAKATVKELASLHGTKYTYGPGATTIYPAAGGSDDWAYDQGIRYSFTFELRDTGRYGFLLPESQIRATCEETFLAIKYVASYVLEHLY

binding result [1]: binds
binding result (human carboxypeptidase B): binds
Binder: QQHADPICNKPCKTHDDCSGAWFCQACWNSARTCGPYVG (peptide, UniProt P01075 1-39, looked up, also called PCI) [potato carboxypeptidase inhibitor]

From patent publication US7176008 (MERCK, dated 2007)
